Results from PMC9065602, “Characterization of Polymer Degrading Lipases, LIP1 and LIP2 From Pseudomonas chlororaphis PA23” (Frontiers in Bioengineering and Biotechnology, 2022).

Test system: CCCCCCCC(=O)Oc1ccc([N+](=O)[O-])cc1
Assay: purified protein
Type: biochemical, Pseudomonas chlororaphis
Details: 0.1-3.0 mM substrate, optimal conditions (pH 8.0, 40 °C)

Work on LIP2 (Pseudomonas chlororaphis) yielded a Km of 286 µM.
